B1: C-terminally flag epitope-tagged HDAC3 (protein)
chain: MAKTVAYFYDPDVGNFHYGAGHPMKPHRLALTHSLVLHYGLYKKMIVFKPYQASQHDMCRFHSEDYIDFLQRVSPTNMQGFTKSLNAFNVGDDCPVFPGLFEFCSRYTGASLQGATQLNNKICDIAINWAGGLHHAKKFEASGFCYVNDIVIGILELLKYHPRVLYIDIDIHHGDGVQEAFYLTDRVMTVSFHKYGNYFFPGTGDMYEVGAESGRYYCLNVPLRDGIDDQSYKHLFQPVINQVVDFYQPTCIVLQCGADSLGCDRLGCFNLSIRGHGECVEYVKSFNIPLLVLGGGGYTVRNVARCWTYETSLLVEEAISEELPYSEYFEYFAPDFTLHPDVSTRIENQNSRQYLDQIRQTIFENLKMLNHAPSVQIHDVPADLLTYDRTDEADAEERGPEENYSRPEAPNEFYDGDHDNDKESDVEI
B2: C-terminally flag epitope-tagged HDAC4 (protein)
chain: MSSQSHPDGLSGRDQPVELLNPARVNHMPSTVDVATALPLQVAPSAVPMDLRLDHQFSLPVAEPALREQQLQQELLALKQKQQIQRQILIAEFQRQHEQLSRQHEAQLHEHIKQQQEMLAMKHQQELLEHQRKLERHRQEQELEKQHREQKLQQLKNKEKGKESAVASTEVKMKLQEFVLNKKKALAHRNLNHCISSDPRYWYGKTQHSSLDQSSPPQSGVSTSYNHPVLGMYDAKDDFPLRKTASEPNLKLRSRLKQKVAERRSSPLLRRKDGPVVTALKKRPLDVTDSACSSAPGSGPSSPNNSSGSVSAENGIAPAVPSIPAETSLAHRLVAREGSAAPLPLYTSPSLPNITLGLPATGPSAGTAGQQDAERLTLPALQQRLSLFPGTHLTPYLSTSPLERDGGAAHSPLLQHMVLLEQPPAQAPLVTGLGALPLHAQSLVGADRVSPSIHKLRQHRPLGRTQSAPLPQNAQALQHLVIQQQHQQFLEKHKQQFQQQQLQMNKIIPKPSEPARQPESHPEETEEELREHQALLDEPYLDRLPGQKEAHAQAGVQVKQEPIESDEEEAEPPREVEPGQRQPSEQELLFRQQALLLEQQRIHQLRNYQASMEAAGIPVSFGGHRPLSRAQSSPASATFPVSVQEPPTKPRFTTGLVYDTLMLKHQCTCGSSSSHPEHAGRIQSIWSRLQETGLRGKCECIRGRKATLEELQTVHSEAHTLLYGTNPLNRQKLDSKKLLGSLASVFVRLPCGGVGVDSDTIWNEVHSAGAARLAVGCVVELVFKVATGELKNGFAVVRPPGHHAEESTPMGFCYFNSVAVAAKLLQQRLSVSKILIVDWDVHHGNGTQQAFYSDPSVLYMSLHRYDDGNFFPGSGAPDEVGTGPGVGFNVNMAFTGGLDPPMGDAEYLAAFRTVVMPIASEFAPDVVLVSSGFDAVEGHPTPLGGYNLSARCFGYLTKQLMGLAGGRIVLALEGGHDLTAICDASEACVSALLGNELDPLPEKVLQQRPNANAVRSMEKVMEIHSKYWRCLQRTTSTAGRSLIEAQTCENEEAETVTAMASLSVGVKPAEKRPDEEPMEEEPPL

Target: 3H-acetylated histone H4 peptide ([3H]-Ac(H41-24))

Protein | in vitro histone deacetylase assay (release of 3H-acetate from the peptide by immunoprecipitated enzyme)
B1 | HDAC9 could deacetylate the histone peptide substrate at a level that was equivalent to UDAC3 and HDAC4
B2 | HDAC9 could deacetylate the histone peptide substrate at a level that was equivalent to UDAC3 and HDAC4
